Test system: L-serine
Experiment: L-serine biosensor dose response by exogenous addition of L-serine (eyfp fluorescence intensity/OD600)
Assay type: cell-based, E. coli JM109
Details: for detection limit of the biosensor (L-serine concentration at which the dose response curve shows an obvious upward trend): E. coli JM109, L-serine 0, 25, 50, 75 or 100 mM, 2 h at 37° C., PSerE-eyfp reporter
Method: Determination of fluorescence intensity and biomass of bacteria: E. coli in the medium was centrifuged at 4° C. and 4000 g for 5 min to collect the bacteria, washed with a precooled PBS buffer for 2-3 times, resuspended and diluted in a PBS buffer (OD600=0.2-0.8). 200 μL of the diluted bacterial liquid was pipetted and added into a 96-well plate, and the fluorescence intensity and bacterial concentration were determined with a multifunctional microplate reader. During the determination of the fluorescence intensity, the parameters of the microplate reader were set to a yellow fluorescent protein excitation wavelength of 488 nm and an emission wavelength of 590/9 nm; and during the determination of the bacteria concentration, the parameters of the microplate reader were set to λ=600.
One part of the biosensor was used for the expression of the transcription regulator NCgl0581, and the other part was connected with the promoter PSerE regulated by NCgl0581, and then connected with eyfp, which was used to characterize the binding of the biosensor to L-serine so as to regulate the transcription level of eyfp. The nucleotide sequence of the promoter PSerE is shown in SEQ ID NO.5, and the nucleotide sequence of the reporter gene eyfp is shown in SEQ ID No.6.
On the basis of site-directed mutation, E. coli JM109 single colonies containing wild-type NCgl0581 and mutant E136P were selected and inoculated into a 10 mL LB (100 μg/mL Kan) liquid medium, and cultured overnight at 37° C. and 220 rpm. A 950 μL of fresh LB medium was added to each well in a sterilized 24-well plate, and then L-serine with different concentrations was added, with the final concentration controlled to be 0, 25, 50, 75 or 100 mM respectively. Finally, 50 μL of the overnight culture bacteria liquid was added to each well, and the well plate was cultured in a shaker for 2 h at 37° C. and 220 rpm.
E. coli JM109 in the medium was centrifuged for 5 min to collect the bacteria, washed with a PBS buffer for 2-3 times, resuspended and diluted in a PBS buffer (OD600=0.2-0.8). 200 μL of the diluted bacterial liquid was pipetted and added into a 96-well plate, and the bacterial concentration OD600 and fluorescence intensity were determined with a multifunctional microplate reader, with the calculated fluorescence intensity/OD600 as the fluorescence intensity value per unit of bacterial cell.
With the fluorescence intensity/OD600 as the ordinate and the L-serine concentration as the abscissa, the dose response curve of the biosensor to L-serine was drawn by OriginPro 8.5. […] According to the response curve, the detection range of wild-type NCgl0581 and mutant E136P could be obtained respectively.

B1: NCgl0581^E136P: transcription factor NCgl0581 mutant, 136th glutamic acid of SEQ ID NO.1 mutated into proline (SEQ ID NO.3) (protein)
chain: VLNLNRLHILQEFHRLGTITAVAESMNYSRSAISQQMALLEKEIGVKLFEKSGRNLYFTEQGEVLASETHAIMAAVDHARAAVLDSLSEVSGTLKVTSFQSLLFTLAPKAIARLTEKYPHLQVEISQLEVTAALEPLRARRVDVALGEEYPVEVPLVEASIHREVLFEDPMLLVTPASGPYSGLTLPELRDIPIAIDPPDLPAGEWVHRLCRRAGFEPRVTFETSDPMLQAHLVRSGLAVTFSPTLLTPMLESVHIQPLPGNPTRTLYTAVREGRQGHPAIKAFRRALAHVAKESYLEARLVE
detection limit of the biosensor (L-serine concentration at which the dose response curve shows an obvious upward trend): 25 mM
change of detection limit of the biosensor versus wild type (biosensor in E. coli, L-serine concentration gradients): reduced by half
response concentration to L-serine (biosensor in E. coli, exogenous addition of L-serine): 25 mM

B2: wild-type NCgl0581: wild-type LysR-family transcription regulator of Corynebacterium glutamicum (SEQ ID NO.1); L-serine biosensor pDSer is based on it (protein)
chain: VLNLNRLHILQEFHRLGTITAVAESMNYSRSAISQQMALLEKEIGVKLFEKSGRNLYFTEQGEVLASETHAIMAAVDHARAAVLDSLSEVSGTLKVTSFQSLLFTLAPKAIARLTEKYPHLQVEISQLEVTAALEELRARRVDVALGEEYPVEVPLVEASIHREVLFEDPMLLVTPASGPYSGLTLPELRDIPIAIDPPDLPAGEWVHRLCRRAGFEPRVTFETSDPMLQAHLVRSGLAVTFSPTLLTPMLESVHIQPLPGNPTRTLYTAVREGRQGHPAIKAFRRALAHVAKESYLEARLVE
detection limit of the biosensor (L-serine concentration at which the dose response curve shows an obvious upward trend): 50 mM

Source: patent US12448422B2, “Transcription factor NCgl0581 mutant and use thereof in L-serine detection” (JITRI FUTURE FOOD TECHNOLOGY INSTITUTE CO., LTD., priority 2023, dated 2025)
